The record followed here is PMC9670274 (ACS Omega, 2022).

Series [1] concerns the target lactate dehydrogenase from Lactobacillus helsingborgensis (Lactobacillus helsingborgensis). The series can be described thus: SEC-MALS. Background: SEC sorts molecules by how far they enter the pores of the column.
The series “SEC-MALS” concerns the molecule itself. Briefly: SEC-MALS.

One may read the stoichiometry N as a count of units in the complex or per binding partner.

“lactate dehydrogenase from Lactobacillus helsingborgensis (enzyme)”: in series [1], the stoichiometry N amounted to 8.

B1: lactate dehydrogenase from Lactobacillus johnsonii (enzyme)
chain: MTTYYKGFPQSTREEKLHMVNLDELEHEAKYVMPEAAYYYVASGAENEWTWRNNTQAFNHFQIVPRALTGMQNPELNTEFLGMKLKTPVMICPIACHGIANAEAEIDTAKGAKAAGALFAMSTYANKSVQEVQSAVGDSPRFMQLYLSKNWDFNKMVIEESVKAGFTGFFLTVDALVSGYREANLRTNFTYPVPLAFFNEWNGGKGEGQSVAQMYASSAQNIGPDDIRKIKEIADVPVIVKGVECAEDAMLAIGTGADGIVVSNHGGREVDGAPATIDVLPEIAKAVRSCDHRVPIILDGGVRRGSHVFKALALGADLVGIGRPFLYGLALGGAQGVQSVIEQLNKELLIDMQLTGCKTIEDIKHAKIDHINYSADWGISSTSRSVMKPYPVTKENQLTGEAADAVSGASRH
Regarding B1, the “stoichiometry N” value in “SEC-MALS” came out at 8.
